Tested on: promoters of target genes in 293T cells
Assay: ChIP in transfected 293T cells (FLAG-MORFN WT or F287A)
Type: cell-based
Method: Chromatin preparation from MEF, U2OS (ATCC HTB-96) and 293T cells were done as previously described. […] Next, 50 μl of Protein G Dynabeads for FLAG ChIP or 25 μl of Protein A Dynabeads was added to each sample and incubated for 4 h at 4 °C. The beads were washed extensively and eluted with 1% SDS and 0.1 M NaHCO3. Cross-linked samples were reversed by heating overnight at 65 °C in the presence of 0.2 M NaCl. Samples were then treated with RNase A and proteinase K for 2 h, and DNA was recovered by phenol-chloroform and ethanol precipitation. Quantitative real-time PCR corrected for primer efficiencies in the linear range were performed using SYBR Green I (Roche) on a LightCycler 480 (Roche).

[1] = corrected for total H3, two independent experiments

B1: FLAG-MORF F287A: FLAG-tagged MORFN F287A mutant defective in histone H3 binding, expressed in 293T cells (protein, UniProt Q8WYB5 1-716, looked up, variant F287A)
chain: MVKLANPLYTEWILEAIQKIKKQKQRPSEERICHAVSTSHGLDKKTVSEQLELSVQDGSVLKVTNKGLASYKDPDNPGRFSSVKPGTFPKSAKGSRGSCNDLRNVDWNKLLRRAIEGLEEPNGSSLKNIEKYLRSQSDLTSTTNNPAFQQRLRLGAKRAVNNGRLLKDGPQYRVNYGSLDGKGAPQYPSAFPSSLPPVSLLPHEKDQPRADPIPICSFCLGTKESNREKKPEELLSCADCGSSGHPSCLKFCPELTTNVKALRWQCIECKTCSACRVQGRNADNMLACDSCDRGFHMECCDPPLSRMPKGMWICQVCRPKKKGRKLLHEKAAQIKRRYAKPIGRPKNKLKQRLLSVTSDEGSMNAFTGRGSPGRGQKTKVCTTPSSGHAASGKDSSSRLAVTDPTRPGATTKITTTSTYISASTLKVNKKTKGLIDGLTKFFTPSPDGRRSRGEIIDFSKHYRPRKKVSQKQSCTSHVLATGTTQKLKPPPSSLPPPTPISGQSPSSQKSSTATSSPSPQSSSSQCSVPSLSSLTTNSQLKALFDGLSHIYTTQGQSRKKGHPSYAPPKRMRRKTELSSTAKSKAHFFGKRDIRSRFISHSSSSSWGMARGSIFKAIAHFKRTTFLKKHRMLGRLKYKVTPQMGTPSPGKGSLTDGRIKPDQDDDTEIKINIKQESADVNVIGNKDVVTEEDLDVFKQAQELSWEKIECESGVEDC
modifications: residues 1-716 FLAG tag
association with promoters (FLAG ChIP) (compared to WT FLAG-MORF, two independent experiments): decreased association | H3K14ac level on promoters (ChIP) [1]: H3K14ac level was unaffected by the mutation | H3K23ac level on promoters (ChIP) [1]: expression of WT FLAG-MORF but not F287A mutant increases H3K23ac level

B2: WT FLAG-MORF: FLAG-tagged wild-type MORFN (residues 1–716 of MORF) expressed in 293T cells (protein, UniProt Q8WYB5 1-716, looked up, fragment)
chain: MVKLANPLYTEWILEAIQKIKKQKQRPSEERICHAVSTSHGLDKKTVSEQLELSVQDGSVLKVTNKGLASYKDPDNPGRFSSVKPGTFPKSAKGSRGSCNDLRNVDWNKLLRRAIEGLEEPNGSSLKNIEKYLRSQSDLTSTTNNPAFQQRLRLGAKRAVNNGRLLKDGPQYRVNYGSLDGKGAPQYPSAFPSSLPPVSLLPHEKDQPRADPIPICSFCLGTKESNREKKPEELLSCADCGSSGHPSCLKFCPELTTNVKALRWQCIECKTCSACRVQGRNADNMLFCDSCDRGFHMECCDPPLSRMPKGMWICQVCRPKKKGRKLLHEKAAQIKRRYAKPIGRPKNKLKQRLLSVTSDEGSMNAFTGRGSPGRGQKTKVCTTPSSGHAASGKDSSSRLAVTDPTRPGATTKITTTSTYISASTLKVNKKTKGLIDGLTKFFTPSPDGRRSRGEIIDFSKHYRPRKKVSQKQSCTSHVLATGTTQKLKPPPSSLPPPTPISGQSPSSQKSSTATSSPSPQSSSSQCSVPSLSSLTTNSQLKALFDGLSHIYTTQGQSRKKGHPSYAPPKRMRRKTELSSTAKSKAHFFGKRDIRSRFISHSSSSSWGMARGSIFKAIAHFKRTTFLKKHRMLGRLKYKVTPQMGTPSPGKGSLTDGRIKPDQDDDTEIKINIKQESADVNVIGNKDVVTEEDLDVFKQAQELSWEKIECESGVEDC
modifications: FLAG tag
notes: FLAG-tagged wild-type MORFN (residues 1–716 of MORF) expressed in 293T cells
H3K23ac level on promoters (ChIP) [1]: increases H3K23ac level on these promoters

From publication PMC6797804, “Histone H3K23-specific acetylation by MORF is coupled to H3K14 acylation” (Nature Communications, 2019)
